Measured values from patent US20240209100A1.
Where two headings read alike, the source gives them in different places.

What was measured:
Assay in all cases: cell-based or functional assay
[1] = target: T1, IL-18 receptor (IL-18Rα/IL-18Rβ) on human PBMCs (human) (UniProt Q13478)
T1 sequence 1: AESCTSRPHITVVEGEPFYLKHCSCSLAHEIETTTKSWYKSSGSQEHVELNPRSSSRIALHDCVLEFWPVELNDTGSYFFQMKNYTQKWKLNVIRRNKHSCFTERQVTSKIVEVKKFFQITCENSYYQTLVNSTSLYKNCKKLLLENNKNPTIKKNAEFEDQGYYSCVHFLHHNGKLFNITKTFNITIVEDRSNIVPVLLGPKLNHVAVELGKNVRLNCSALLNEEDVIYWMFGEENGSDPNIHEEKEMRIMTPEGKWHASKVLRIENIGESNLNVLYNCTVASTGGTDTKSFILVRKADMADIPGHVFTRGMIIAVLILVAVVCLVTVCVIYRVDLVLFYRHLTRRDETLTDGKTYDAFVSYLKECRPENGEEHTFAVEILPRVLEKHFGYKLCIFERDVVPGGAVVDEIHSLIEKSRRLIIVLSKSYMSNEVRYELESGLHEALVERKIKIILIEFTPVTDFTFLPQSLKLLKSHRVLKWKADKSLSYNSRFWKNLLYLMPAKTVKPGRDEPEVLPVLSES
T1 sequence 2: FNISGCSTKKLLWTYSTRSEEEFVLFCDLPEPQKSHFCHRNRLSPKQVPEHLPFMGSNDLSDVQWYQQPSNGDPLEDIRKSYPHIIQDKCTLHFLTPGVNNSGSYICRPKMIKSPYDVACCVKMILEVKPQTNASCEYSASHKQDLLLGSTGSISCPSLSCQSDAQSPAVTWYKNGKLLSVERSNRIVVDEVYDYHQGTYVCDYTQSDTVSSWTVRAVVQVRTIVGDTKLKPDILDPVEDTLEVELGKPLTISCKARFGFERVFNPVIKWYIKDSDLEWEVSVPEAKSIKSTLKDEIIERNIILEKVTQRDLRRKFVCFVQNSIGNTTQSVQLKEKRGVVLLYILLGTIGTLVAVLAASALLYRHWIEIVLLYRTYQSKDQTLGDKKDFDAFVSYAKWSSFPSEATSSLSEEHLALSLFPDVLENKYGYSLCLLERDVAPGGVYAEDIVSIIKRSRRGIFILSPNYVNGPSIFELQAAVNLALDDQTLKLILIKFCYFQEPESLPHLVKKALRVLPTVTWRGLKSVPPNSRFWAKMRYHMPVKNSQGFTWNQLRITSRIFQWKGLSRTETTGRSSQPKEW

[2] = target: T2, IL-18 receptor (IL-18Rα/IL-18Rβ) overexpressed on HEK-Blue IL-18 cells (Homo sapiens (Human)) (UniProt Q13478)
T2 sequence 1: T1 sequence 1
T2 sequence 2: T1 sequence 2

[3] = target: T2, IL-18 receptor (IL-18Rα/IL-18Rβ) overexpressed on HEK-Blue IL-18 cells (Homo sapiens (Human)); remark: listed apart in the source
[4] = target: T2, IL-18 receptor (IL-18Rα/IL-18Rβ) overexpressed on HEK-Blue IL-18 cells (Homo sapiens (Human)); remark: listed apart in the source
[5] = target: T2, IL-18 receptor (IL-18Rα/IL-18Rβ) overexpressed on HEK-Blue IL-18 cells (Homo sapiens (Human)); remark: listed apart in the source
[6] = target: T2, IL-18 receptor (IL-18Rα/IL-18Rβ) overexpressed on HEK-Blue IL-18 cells (Homo sapiens (Human)); remark: listed apart in the source

Sequence of Human IL-18 (Q14116 37-193 limits assumed): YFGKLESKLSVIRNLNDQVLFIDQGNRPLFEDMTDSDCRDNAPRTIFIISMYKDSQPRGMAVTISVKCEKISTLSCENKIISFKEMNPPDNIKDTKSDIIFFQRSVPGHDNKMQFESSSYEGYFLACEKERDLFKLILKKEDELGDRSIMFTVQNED

- PBMC IFNγ induction (24 h, with IL-12): EC50, Average [1]: 6.8
- PBMC IFNγ induction (24 h, with IL-12): EC50, donor 1 [1]: 1.9
- PBMC IFNγ induction (24 h, with IL-12): EC50, donor 2 [1]: 1.7
- PBMC IFNγ induction (24 h, with IL-12): EC50, donor 3 [1]: 1.4
- PBMC IFNγ induction (24 h, with IL-12): EC50, donor 4 [1]: 4.7
- PBMC IFNγ induction (24 h, with IL-12): EC50, donor 5 [1]: 1.9
- PBMC IFNγ induction (24 h, with IL-12): EC50, donor 6 [1]: 29.4
- PBMC: calculated maximum induction of IFNγ after 24 hours, donor 1 [1]: 42000
- PBMC: calculated maximum induction of IFNγ after 24 hours, donor 2 [1]: 5300
- PBMC: calculated maximum induction of IFNγ after 24 hours, donor 3 [1]: 89000
- PBMC: calculated maximum induction of IFNγ after 24 hours, donor 4 [1]: 69000
- PBMC: calculated maximum induction of IFNγ after 24 hours, donor 5 [1]: 150000
- PBMC: calculated maximum induction of IFNγ after 24 hours, donor 6 [1]: 28000
- HEK-Blue IL-18: Abs 405 (Ave of 2) [2]: 2.6 Abs
- HEK-Blue IL-18: Abs405 (Emax), Average (hu IL-18) [2]: 2.72 Abs
- HEK-Blue IL-18: EC50 (M), Average (hu IL-18) [2]: 7.14e-14 M
- HEK-Blue IL-18: Emax (Abs at 630 nm), Human IL-18 (1 ng/ml) (Abs at 630 nm) [2]: 3.25
- HEK-Blue IL-18: Fold over background [2]: 22 fold
- HEK-Blue IL-18: Abs405 [3]: 3.08 Abs
- HEK-Blue IL-18: Fold over background [3]: 26 fold
- HEK-Blue IL-18: Abs405 [4]: 3.1 Abs
- HEK-Blue IL-18: Fold over background [4]: 13.6 fold
- HEK-Blue IL-18: Abs 405 at 100 nM [5]: 3 Abs
- HEK-Blue IL-18: Fold over background [5]: 13.2 fold
- HEK-Blue IL-18: Abs 405 at 100 nM [6]: 2.6 Abs
- HEK-Blue IL-18: Fold over background [6]: 14.4 fold
Substance: Human IL-18 (from UniProt Q14116 37-193) (ligand)
